From paper PMC9408429, “Thermodynamic Swings: How Ideal Complex of Cas9–RNA/DNA Forms” come the findings set out here.

This data set concerns the target Cas9 (UniProt Q99ZW2 1-1368). Put plainly: ITC; RNA 62.5 uM into Cas9 5 uM; n = 2.10; triplicate; dH -399.10 kcal/mol; ITC, 20 mM HEPES pH 7.6, 150 mM NaCl, 25 °C, 200 rpm; no Mg2+ listed. The following applies: protein: recombinant; intramolecular helices; dimer possible. For orientation: Isothermal titration calorimetry measures the heat released or taken up as one component is titrated into another.

Cas9, sequence (Q99ZW2 whole entry): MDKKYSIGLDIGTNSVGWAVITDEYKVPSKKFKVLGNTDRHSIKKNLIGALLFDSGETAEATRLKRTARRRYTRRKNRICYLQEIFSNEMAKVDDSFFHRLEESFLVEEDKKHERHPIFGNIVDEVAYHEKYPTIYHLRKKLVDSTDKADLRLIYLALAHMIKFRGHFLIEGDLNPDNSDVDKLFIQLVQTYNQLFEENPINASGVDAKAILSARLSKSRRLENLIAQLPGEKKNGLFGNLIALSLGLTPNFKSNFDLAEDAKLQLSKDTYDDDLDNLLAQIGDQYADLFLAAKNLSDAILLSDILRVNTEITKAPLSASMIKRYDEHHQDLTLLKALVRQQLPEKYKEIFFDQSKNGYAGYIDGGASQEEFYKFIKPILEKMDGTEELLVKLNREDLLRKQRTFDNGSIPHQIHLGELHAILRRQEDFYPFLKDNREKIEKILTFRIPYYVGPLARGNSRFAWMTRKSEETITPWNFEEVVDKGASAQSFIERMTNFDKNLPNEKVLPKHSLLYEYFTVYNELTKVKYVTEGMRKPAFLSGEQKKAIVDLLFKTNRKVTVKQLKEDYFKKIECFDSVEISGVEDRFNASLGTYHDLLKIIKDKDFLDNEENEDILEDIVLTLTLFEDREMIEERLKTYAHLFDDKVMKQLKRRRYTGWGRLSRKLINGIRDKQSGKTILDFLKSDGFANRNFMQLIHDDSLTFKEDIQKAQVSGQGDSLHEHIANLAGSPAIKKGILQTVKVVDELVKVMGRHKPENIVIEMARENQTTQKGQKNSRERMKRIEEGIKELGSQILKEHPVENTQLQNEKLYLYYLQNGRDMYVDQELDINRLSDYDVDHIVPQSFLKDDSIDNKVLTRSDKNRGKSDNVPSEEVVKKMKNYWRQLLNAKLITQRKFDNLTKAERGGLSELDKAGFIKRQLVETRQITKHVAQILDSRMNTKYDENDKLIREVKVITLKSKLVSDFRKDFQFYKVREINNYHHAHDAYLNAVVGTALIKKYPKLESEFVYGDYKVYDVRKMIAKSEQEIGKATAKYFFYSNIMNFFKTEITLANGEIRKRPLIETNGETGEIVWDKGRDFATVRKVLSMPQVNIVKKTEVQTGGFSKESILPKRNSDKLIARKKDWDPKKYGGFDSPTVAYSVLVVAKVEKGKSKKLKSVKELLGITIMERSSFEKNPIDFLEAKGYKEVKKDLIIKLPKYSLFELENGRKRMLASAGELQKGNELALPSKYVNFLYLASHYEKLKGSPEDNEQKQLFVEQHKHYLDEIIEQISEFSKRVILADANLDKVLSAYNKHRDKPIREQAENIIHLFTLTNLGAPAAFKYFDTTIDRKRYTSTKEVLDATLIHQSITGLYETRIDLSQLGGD

B1: RNA (sgRNA) (structured_RNA)
RNA: GGUUGGACAUGCUCGACAUUCGUUUUAGAGCUAGAAAUAGCAAGUUAAAAUAAGGCUAGUCCGUUAUCAACUUGAAAAAGUGGCACCGAGUCGGUGCUUUUUU
For the molecule B1, the Kd was 2210 nM.

The term Kd denotes the concentration at which binding is half-saturated.
